Results: patent publication US20240158509A1 (MOMENTA PHARMACEUTICALS, published 2024)

Columns and labels:
[1] = target: T1, endogenous cynomolgus monkey FcRn in monocytes (cynomolgus monkey, UniProt Q8SPV9 24-365; Q8SPW0 21-119); assay: target occupancy in vivo: monocytes from lysed whole blood of cynomolgus monkeys after one i.v. dose, fixed and permeabilized, unoccupied FcRn stained with Dy650-labeled N027, FACS
T1 construct: whole, on cells; Target occupancy was measured ex vivo by FACS on fixed and permeabilized monocytes
T1 sequence (Q8SPV9 24-365, chain 1 of 2): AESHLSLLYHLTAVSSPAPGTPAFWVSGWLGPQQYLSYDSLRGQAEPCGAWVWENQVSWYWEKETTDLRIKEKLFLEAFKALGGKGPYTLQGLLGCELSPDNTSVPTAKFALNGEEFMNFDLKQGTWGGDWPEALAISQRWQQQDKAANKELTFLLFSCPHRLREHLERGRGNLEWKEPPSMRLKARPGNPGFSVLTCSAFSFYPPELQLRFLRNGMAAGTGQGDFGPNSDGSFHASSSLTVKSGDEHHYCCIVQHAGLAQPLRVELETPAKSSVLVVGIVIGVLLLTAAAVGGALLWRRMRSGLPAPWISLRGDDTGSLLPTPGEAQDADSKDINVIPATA
T1 sequence (Q8SPW0 21-119, chain 2 of 2): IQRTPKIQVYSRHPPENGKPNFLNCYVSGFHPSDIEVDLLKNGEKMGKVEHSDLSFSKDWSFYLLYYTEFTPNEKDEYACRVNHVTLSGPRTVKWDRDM

[2] = target: endogenously expressed human FcRn (human, UniProt P55899 24-365; P61769 21-119); assay: cell-based or functional assay
Sequence of endogenously expressed human FcRn (P55899 24-365, chain 1 of 2): as the sequence (Q8SPV9 24-365, chain 1 of 2) above, with D39N, Q44E, S99G, G189S, N190S, M217L, T269S, S319V, S332L, I335V counted along it
Sequence of endogenously expressed human FcRn (P61769 21-119, chain 2 of 2): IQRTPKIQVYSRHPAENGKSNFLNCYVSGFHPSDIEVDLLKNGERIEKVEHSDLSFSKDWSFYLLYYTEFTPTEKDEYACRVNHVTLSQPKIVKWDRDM

B1: N027 (antibody, human IgG1, lambda, N297A)
heavy: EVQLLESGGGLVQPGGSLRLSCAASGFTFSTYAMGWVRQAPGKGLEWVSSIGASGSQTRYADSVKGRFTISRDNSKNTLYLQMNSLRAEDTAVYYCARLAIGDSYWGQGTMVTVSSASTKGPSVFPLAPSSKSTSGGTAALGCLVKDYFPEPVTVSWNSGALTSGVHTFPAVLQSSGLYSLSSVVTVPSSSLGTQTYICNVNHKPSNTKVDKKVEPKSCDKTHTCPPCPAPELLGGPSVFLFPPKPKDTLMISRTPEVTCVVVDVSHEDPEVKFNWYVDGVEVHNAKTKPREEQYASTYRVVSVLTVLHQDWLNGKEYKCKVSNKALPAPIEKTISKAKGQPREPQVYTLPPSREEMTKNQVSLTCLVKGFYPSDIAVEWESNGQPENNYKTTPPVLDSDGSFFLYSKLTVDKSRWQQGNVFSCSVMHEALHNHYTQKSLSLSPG
light: QSALTQPASVSGSPGQSITISCTGTGSDVGSYNLVSWYQQHPGKAPKLMIYGDSERPSGVSNRFSGSKSGNTASLTISGLQAEDEADYYCSSYAGSGIYVFGTGTKVTVLGQPKAAPSVTLFPPSSEELQANKATLVCLISDFYPGAVTVAWKADSSPVKAGVETTTPSKQSNNKYAASSYLSLTPEQWKSHKSYSCQVTHEGSTVEKTVAPTECS
notes: Full-length IgG; In the occupancy assays unlabeled N027 was followed by dye-labeled N027 (Dy650, VivoTag645); DyLight594-N027 was used for imaging; also called M281; anti-FcRn antibody N027
binding result [1]: binds | intracellular IgG accumulation (VivoTag645-IgG, gMFI), ~IC50, HAECs [2]: ~0.12 µg/mL | intracellular IgG accumulation (VivoTag645-IgG, gMFI), ~IC50, HUVECs [2]: ~0.15 µg/mL | intracellular IgG accumulation (VivoTag645-IgG, gMFI), ~IC50, HVTs [2]: ~0.07 µg/mL
